Results from US20110045007A1 (Genmab, published 2011).

Target: T1, human C1q (human, UniProt P02745 23-245; P02746 28-253; P02747 29-245)
T1 construct: Bought protein; also called first component of the classical complement cascade
Experiment: ELISA, antibody coated, C1q detected with rabbit anti-human C1q
Method: In short, microtiter ELISA plates (Greiner, Germany) were coated overnight at RT with the test antibodies serially diluted from 10 μg/ml to 0.06 μg/ml in PBS. Plates were emptied and wells were blocked with 200 μl ELISA-diluent per well (0.1 M NaPO₄, 0.1 M NaCl, 0.1% gelatin and 0.05% Tween-20), at RT for 30 minutes. […] After washing the plates (3×) with PBST, wells were incubated with HRP-conjugated swine anti-rabbit IgG-Fc (DAKO, P0300, lot #069) diluted in ELISA diluent (1:2500, 100 μl/well, RT, 1 hour). Thereafter, plates were washed thrice and assays were developed with freshly prepared 1 mg/ml ABTS solution (ABTS: 2,2′-azino-bis[3-ethylbenzthiazoline-6-sulfonic acid]); 2 tablets of 5 mg in 10 ml ABTS buffer, Boehringer Mannheim, Ingelheim, Germany) at RT in the dark for 30 minutes.

T1 sequence (P02745 23-245 limits assumed, chain 1 of 3): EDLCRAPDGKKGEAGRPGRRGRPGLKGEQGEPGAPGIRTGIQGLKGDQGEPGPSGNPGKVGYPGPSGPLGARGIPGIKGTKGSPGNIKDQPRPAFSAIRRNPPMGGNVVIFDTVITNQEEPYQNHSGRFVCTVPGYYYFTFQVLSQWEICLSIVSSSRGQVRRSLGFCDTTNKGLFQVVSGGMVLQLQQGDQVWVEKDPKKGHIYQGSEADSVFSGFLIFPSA
T1 sequence (P02746 28-253 limits assumed, chain 2 of 3): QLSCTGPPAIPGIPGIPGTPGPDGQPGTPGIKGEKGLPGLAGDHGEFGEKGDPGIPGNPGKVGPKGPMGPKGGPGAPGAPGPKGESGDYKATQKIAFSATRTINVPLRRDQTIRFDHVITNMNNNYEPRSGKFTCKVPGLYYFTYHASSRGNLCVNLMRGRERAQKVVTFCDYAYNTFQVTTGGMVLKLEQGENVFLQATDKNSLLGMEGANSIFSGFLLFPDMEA
T1 sequence (P02747 29-245 limits assumed, chain 3 of 3): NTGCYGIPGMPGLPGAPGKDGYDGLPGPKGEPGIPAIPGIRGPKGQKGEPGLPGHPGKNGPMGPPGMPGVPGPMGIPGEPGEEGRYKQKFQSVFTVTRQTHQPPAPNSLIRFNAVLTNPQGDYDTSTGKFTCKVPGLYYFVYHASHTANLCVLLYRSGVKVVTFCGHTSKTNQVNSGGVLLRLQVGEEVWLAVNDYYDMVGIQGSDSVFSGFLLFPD

binding result: no binding
B1: 7D8-HG (antibody)
heavy: EVQLVESGGGLVQPDRSLRLSCAASGFTFHDYAMHWVRQAPGKGLEWVSTISWNSGTIGYADSVKGRFTISRDNAKNSLYLQMNSLRAEDTALYYCAKDIQYGNYYYGMDVWGQGTTVTVSSASTKGPSVFPLAPCSRSTSESTAALGCLVKDYFPEPVTVSWNSGALTSGVHTFPAVLQSSGLYSLSSVVTVPSSSLGTKTYTCNVDHKPSNTKVDKRVAPEFLGGPSVFLFPPKPKDTLMISRTPEVTCVVVDVSQEDPEVQFNWYVDGVEVHNAKTKPREEQFNSTYRVVSVLTVLHQDWLNGKEYKCKVSNKGLPSSIEKTISKAKGQPREPQVYTLPPSQEEMTKNQVSLTCLVKGFYPSDIAVEWESNGQPENNYKTTPPVLDSDGSFFLYSRLTVDKSRWQEGNVFSCSVMHEALHNHYTQKSLSLSLGK
light: not shown
notes: Half-molecule of one heavy and one light chain; also called hingeless IgG4 anti-CD20; IgG4 HG
